Source: the supplement of paper PMC9112550, “Optimization of the antimicrobial peptide Bac7 by deep mutational scanning” (BMC Biology, 2022)

tested on: Escherichia coli TOP10; test: shrunken log2 fold change of peptide-encoding DNA abundance (4.5 h post-induction vs induction); higher = less antimicrobial activity (less host growth inhibition); conditions: time post-induction: 4.5 h; library: site-saturation at positions 5, 18, 19, 20
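Note: peptides expressed intracellularly from a pBAD plasmid library in pooled LB shake-flask culture, induced with 0.3% L-arabinose, DNA abundance read by NGS, three biological replicates, DESeq2 with apeglm shrinkage.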

RRIRTRPPRLPRPRPRPNLTPRP and RRIRDRPPRLPRPRPRPNEWPRP are within 0.2 log units of each other in “shrunken log2 fold change” value: -0.00355 for the first, -0.00174 for the second.

Compared with RRIRMRPPRLPRPRPRPQDPPRP, RRIRERPPRLPRPRPRPNIGPRP is lower in “shrunken log2 fold change” value: 0.786 for the first, -0.00187 for the second.

RRIRERPPRLPRPRPRPCVKPRP and RRIRERPPRLPRPRPRPAVDPRP are within 0.2 log units of each other in “shrunken log2 fold change” value: -0.00643 for the first, 0.116 for the second.

RRIRIRPPRLPRPRPRPGDFPRP and RRIRQRPPRLPRPRPRPGIPPRP are within 0.2 log units of each other in “shrunken log2 fold change” value: -0.162 for the first, -0.0269 for the second.

Compared with RRIRARPPRLPRPRPRPVGCPRP, RRIRIRPPRLPRPRPRPSTGPRP is lower in “shrunken log2 fold change” value: 0.768 for the first, -0.505 for the second.

First: RRIRFRPPRLPRPRPRPRNLPRP
Second: RRIRGRPPRLPRPRPRPSSLPRP
The “shrunken log2 fold change” value of the first is higher: -0.016 for the first, -0.252 for the second.

RRIRLRPPRLPRPRPRPVSCPRP and RRIRSRPPRLPRPRPRPGIDPRP are within 0.2 log units of each other in “shrunken log2 fold change” value: -0.0041 for the first, -0.0173 for the second.

Going from RRIRGRPPRLPRPRPRPSNSPRP to RRIRIRPPRLPRPRPRPALGPRP, the “shrunken log2 fold change” value rises from -0.203 to 0.0956.

Going from RRIRGRPPRLPRPRPRPMVHPRP to RRIRWRPPRLPRPRPRPQYTPRP, the “shrunken log2 fold change” value falls from -0.0529 to -0.384.

Going from RRIRYRPPRLPRPRPRPHAAPRP to RRIRFRPPRLPRPRPRPAREPRP, the “shrunken log2 fold change” value rises from -0.211 to 0.612.

RRIRCRPPRLPRPRPRPRMNPRP and RRIRPRPPRLPRPRPRPWHQPRP are within 0.2 log units of each other in “shrunken log2 fold change” value: -0.096 for the first, 0.0649 for the second.

Going from RRIRIRPPRLPRPRPRPLTCPRP to RRIRFRPPRLPRPRPRPCVTPRP, the “shrunken log2 fold change” value falls from -0.174 to -0.492.

Going from RRIRIRPPRLPRPRPRPDTSPRP to RRIRHRPPRLPRPRPRPKRRPRP, the “shrunken log2 fold change” value rises from -0.283 to 0.116.

Going from RRIRQRPPRLPRPRPRPALDPRP to RRIRVRPPRLPRPRPRPHHVPRP, the “shrunken log2 fold change” value falls from 0.296 to -0.261.

RRIRQRPPRLPRPRPRPTYVPRP and RRIRHRPPRLPRPRPRPNFTPRP are within 0.2 log units of each other in “shrunken log2 fold change” value: -0.161 for the first, -0.104 for the second.

RRIRRRPPRLPRPRPRPKSGPRP and RRIRERPPRLPRPRPRPIWEPRP are within 0.2 log units of each other in “shrunken log2 fold change” value: -0.0499 for the first, 0.0512 for the second.

RRIRDRPPRLPRPRPRPYVTPRP and RRIRSRPPRLPRPRPRPAMMPRP are within 0.2 log units of each other in “shrunken log2 fold change” value: -0.131 for the first, -0.0721 for the second.

First: RRIRARPPRLPRPRPRPCDVPRP
Second: RRIRWRPPRLPRPRPRPWNMPRP
The “shrunken log2 fold change” value of the first is higher: 0.212 for the first, -0.101 for the second.

RRIRMRPPRLPRPRPRPHFCPRP and RRIRERPPRLPRPRPRPVTCPRP are within 0.2 log units of each other in “shrunken log2 fold change” value: -0.0487 for the first, -0.204 for the second.

RRIRPRPPRLPRPRPRPHEDPRP and RRIRHRPPRLPRPRPRPQIGPRP are within 0.2 log units of each other in “shrunken log2 fold change” value: -0.0757 for the first, -0.0135 for the second.

First: RRIRTRPPRLPRPRPRPPNIPRP
Second: RRIRRRPPRLPRPRPRPRRWPRP
The “shrunken log2 fold change” value of the first is lower: -0.355 for the first, 0.386 for the second.

RRIRCRPPRLPRPRPRPYEFPRP and RRIRARPPRLPRPRPRPMQTPRP are within 0.2 log units of each other in “shrunken log2 fold change” value: -0.0684 for the first, 0.114 for the second.

RRIRFRPPRLPRPRPRPGRSPRP and RRIRIRPPRLPRPRPRPWWGPRP are within 0.2 log units of each other in “shrunken log2 fold change” value: 0.183 for the first, 0.0378 for the second.

Going from RRIRMRPPRLPRPRPRPRPTPRP to RRIRWRPPRLPRPRPRPVWEPRP, the “shrunken log2 fold change” value falls from 1.27 to 0.912.

Compared with RRIRSRPPRLPRPRPRPEFMPRP, RRIRMRPPRLPRPRPRPFRPPRP is lower in “shrunken log2 fold change” value: 0.135 for the first, -0.16 for the second.
